# Measured values reported in patent US20220010284A1 (TRUSTEES OF PRINCETON UNIVERSITY, published 2022).
# T1: lambda HALO-cI (HIS-HALO-cIlambda) (phage lambda, UniProt P03034 2-237)
# T1 construct: also called lambda cI; lambda repressor; not shown: N-terminal HIS-HALO tag and linker from vector pH6HTN
# T1 sequence: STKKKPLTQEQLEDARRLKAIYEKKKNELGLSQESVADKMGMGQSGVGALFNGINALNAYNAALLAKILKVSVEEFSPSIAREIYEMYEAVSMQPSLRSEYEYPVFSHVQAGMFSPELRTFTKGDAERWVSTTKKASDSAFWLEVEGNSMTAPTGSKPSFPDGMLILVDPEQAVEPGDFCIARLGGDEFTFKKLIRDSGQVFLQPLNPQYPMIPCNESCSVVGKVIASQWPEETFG
# B1: Qtip (Gp55 of phage VP882, quorum triggered inactivator of cI protein) (other)
# chain: MCDFCSEHIDSLDALQSSLEKGTAIIELLDTALSAGIEVSPRVVSCALSAAHQHLQVSEKINRSLQIGCGSKEVLRLVD
# notes: also called phage VP882 Qtip; pTetA-qtip
# B2: ORF584 (Qtip-like protein of phage MJ1) (other)
# chain: MDLRVSNAKDLLDKFEEKAVQMESISQLLANAPEDLTLATVQGSLSALASIARDAGEAADRLRTISSAEG
# notes: also called phage MJ1 orf584; pTetA-orf584
# Legend:
# [1] = tested on: Gp59 (cI repressor, phage VP882) (Vibrio phage VP882); experiment: cell_activity; details: Pq-lux in E. coli, arabinose induced; direct binding inferred
# [2] = target: T1, lambda HALO-cI (HIS-HALO-cIlambda); experiment: confocal microscopy of HALO-cI localization in E. coli co-expressing Qtip
# [3] = target: T1, lambda HALO-cI (HIS-HALO-cIlambda); experiment: confocal microscopy of HALO-cI localization in E. coli with induced orf584
molecule,measurement,setting,value
Pq (q/gp62 promoter),activity (fold repression),[1],140
B1,binding result,[2],no binding
B2,binding result,[3],no binding
